Assay results as given in the DeepSol protein solubility set.

Experiment: soluble on expression in E. coli; label from the status in PepcDB or PDB records

Soluble on expression in E. coli, not soluble:
MGSDKIHHHHHHMSDSAKQPELWLMGLGCEEERSTAVLDYLRHAGYSVVCRGRDDFGDTKPLGVVLDVSPFSHDGWGILLDIKNNPATRDVPILPVYLSQEGKIGGVFPAAGFFTLPIDTDYMMKKLTVLGLTDEADTWDLQVMVISKKGEESVAKAITSLGFEVVNAYTGKEAVALATTGRAYMIFCSVTLPDMHSFELLERFRLYPQVRNVPFFVLVKDAMKEGERLALSRQMDHLVRKKELSRDEFLAYLRRRG
MGSDKIHHHHHHMSDTHIGAKSLTIEEREQDYYDTFQEAVEIAIDEKVDFIIHSGDLFDTWIPGNRSMKVFRDAMMKLNDRQIPVFYVFGDHDRPRRNSESAAGIFDFLGLHILGRDEFAGIEREFSGMKVFIGGISNMKGYLRNQLKEEYKKAESASTGYKNSILISHQALDPIFIPEQCEAKVNDLPMNYSYIAMGHLHDFVEREIGPLLSYPGSTELKSDREINGLLKMGKGINVIDLDNGVASLHRVKLKKVRYQFKVESDPENYLEEIKSILDKYANAIGEKKPIVNLIINGQISMEEVYEDLKKINGAIFNRPQILKIVDMPNVPSGSSELREYFQAFLKDQKLTDLAMKVFQHTADGDKEAIIREAAGEAIDN
MGSDKIHHHHHHMSDWTDRLPEAARAYIADRRVDEVECILSDIAGVARGKAMPAFKFGKQTSFFLPNSIFLQTITGEWADNPSGAFTEPDMILIPDYSTATAAPWTADITLQVIHDAVDQQGRPVPVSPRNVLRRVVELYNAEGWTPIVAPEMEFFLVARNIDPNMPVMPPMGRTGRRAAAKQAYSMSAVDEYGKVIDDIYDFAEAQGFEIDGILQEGGAGQVEINLAHGDPVALADQIFFFKRLIREAALRHDCFATFMAKPIEGEPGSAMHIHHSVVDSASKLNIFSDAKGGETEAFLHFIAGMQTHLPAAVALLAPYVNSYRRYVPDFAAPINLEWGRDNRTTGLRVPISGPEARRLENRLAGMDCNPYLGLAASLACGYLGLKERKMPQPECTGDAYMSETDLPYNLGDALDLLEEDAALRDVLGPEFCGVYDSVKRNEYKEFLQVISPWEREHLLLNV
MGSDKIHHHHHHMSEIASTKARKRCAVYCRVSSDERLDQEFNSIDAQKEAGHAYVASQRSEGWISVADDYDDPGFSGGNTDRPGLKRLMADIERGQIDIVVVYKIDRLTRSLADFSKMVEVFERHEVSFVSVTQQFNTTTSMGRLMLNVLLSFAQFEREVTGERIRDKIAAAKRKGMWMGGVPPLGYDVDNRLLVINETEAAVVRRIFEEMLTIGSPTQIAVNLTADGITNKAWTTQEGQTRNGTRIDKKYLHNLLRNRIYLGELSHKGNWYPGAHLPIIDRELWDKVHAVLARDGHARSVETKIRSRTDALLRGLLYAPSGERMYPTYSRKNGRKYHYYVSKSESRFGAPGKSY
MGSDKIHHHHHHMSELITTGVDIGSGCIKTVVFKVNGDKVEWLGKETSRIRNRDPFQLTTETYNHMLKSAGVDAKDVAYVASTGDAENLSFATGHFYSMTTHGRGGLYLNPEARAVLDIGALNGRAIRMDGVGKVLSYKMTSQCASGSGQFLENIARYLGIAQDEIGSLSMKADDPEKVSSICAVLAETDVINMVSRGISASNILKGIHVSMAVRLAKLLKSIGAVDGIVQVTGGLALDTGLVAALNEAAEQEKVNLKAVSHPDSIYAGAIGAALWGAFRHEKLARLGQAA
MGSDKIHHHHHHMSELRQQCLWEHVSKPTVAAQALAGEHKADVCVIGGGITGLSAAIHLLEQGKSVIVLEAWKIGHGGSGRNVGLVNAGTWIRPDDVEATLGQKQGSRLNKVLGEAPAEVFAMIERLGIDCQAQHKGTLHMAHNATGIADLEARHEQWRRRGADVELLTGAQCQEYCGTDKISAALLDRRAGTINPMGYTQGLAAAVTRLGGKIFQQSSVEGLEREGDGWRVKTARGAVRAEKVVISTGAYTEGDWSNLQKQFFRGYYYQVASKPLQGIAADKVLPHGQGSWDTRTVLSSIRRDDQGRLLLGSLGRVDNKPAWFVRSWADRIQSHYYPELGKVEWEMHWTGCIDFTPDHLMRLFEPAPGLVAVTGYNGRGNTTGTVIGRAFAEFLLKGEADSLPIPFSPMSGVSAPSLRTAFYESGFSLYHAGQCLRVVL
MGSDKIHHHHHHMSERLRVLVVSHGHPAMSLGGAEIASHSLHKGLNTLPGVESIYLARVGHPVPRHGASALMSLRLAVDEVLFHADDYDHFFLSNGDTEAIRRDLLRFIGDLSPHVIHFHHLIGMGMEALYALREALPEAVIVVTFHEYLSLCHNHGQMVKRPSAQLCNSSSPISCHGCFPDIPVSRFLRREEFLRGMLGLADAFISPSMFLANRYVEWGIDAEKLSVIDNGIVMGEAAPVRDLPVPSARRNRFAYFGQMTPFKGIDVLVDAVSRVPEEIWGEDSCLMIFGGNLERQPAEFQERLKKLIDDAGRRVRFYGAYQNADMPRLMRSVDWVVLPSIWWENSPVVIQEALHHRRPIICSDIGGMAEKVQDGRDGLHFRAGSAQDLADRLSDVLVKPEAWDRLHATLRPPTGHAESARAHADLYRRLLKDRRSPLGAAQYEAAAQAVV
MGSDKIHHHHHHMSESKIDNRLWSSKARNLSPYVPGEQPQHDDLCKLNTNENPFPPSPKVGEAITKVLAQQADDLRLYPAPESEELRGALAALYNLDINQVFVGNGSDEVLALVFASFFLKNRPVLAPDISYSFYPVYANTFGIELVQIPLEADFSISPDAYRRPCSGIIIANPNAPTGLLLSLADIRKLAGEHSDSVIVIDEAYIDFAQLEEASAESQMSAISLINEFDNLLVTQTFSKSRSLAGLRVGMAFGNASLIEALTRMKNSFNSYPLDKLAQAGATASVLDVEYFEQTCQQVIDLRTSLTAELTALGYDVLPSHANFVFARPHDGAASQVAEVLREQGIIVRHFDKPRINEYLRITIGTPSQHERLINALKALQAVADVEAS
MGSDKIHHHHHHMSFPDVTNYYLFAQVMACGSISAASRELGLPKSTISRKMALLEQEQGTRLFHRSRSGLKLTDVGREFLVHCERLVSAAESAQQVTQRLLDKPRGKVEISAPYALSQSLLVQVLPEFMSLYPEVEIQLVVTNRPVNLIEEGIDIALRVRKNIEDSSLIARPISQAPQTLYIAPDLINQNSITEPEDLLTFEHLSMHYTNGRYGYELIHSSGLQKNIRIKPRLITDDMIVLREAAIKKLGIVALPNYLCNDAVNSGELVPVLTDWHLPIGIMHITYSHRRGILPAVRVLIDFLAEKLPHLAQQQF
MGSDKIHHHHHHMSHDTVSPGLSLREIRAILAVAEQRGFSSAARRLNISQSSLSRTIHRAESVLAIRLFQRGWGGAEPTPEGEIVRQHCTQVMAELLHERDALMAAGLTRLPLPLDLRWRDLACVAAVVHTGKTTTAAKWLRTSQSSVSRTLGAISVRLGSPLFQRSGEGLRAEPLAERLVALRDRMCARMQPLQERLGHLAGEVTGRLAVGMTPFCEQERVAQAFGDLLVAYPQLRLSAVTGSYVMLTDALRCGEIDLVVGLLRELGEDDELAELPLAEEAITVLARSDHPCAVRSVSMEDLARQTWIVAPAGTPIRAYFERLFLGMGKTPPVQTCEIVTFHLAESMVRESQSLALLLYSPRKVRELPPGLVRVPVTLPDNRRHIGVTYRRDAGLSFTQRQFIDGLAKRFASDDDAEGNAP
MGSDKIHHHHHHMSIKSDKWIRRMSEEFGMIDPFEPNQIKEADGQRIISYGTSSYGYDIRCANEFKIFTNINSTIVDPKNFDPKNFVTVEDDCCIIPPNSFALARTVEYFRIPRNVLTVCLGKSTYARCGIIVNVTPFEPEWEGYVTLEFSNTTPLPAKIYAGEGVAQVLFFESDEVCETSYKDRNGKYMGQTGVTLPKA
MGSDKIHHHHHHMSISLATISGRVHAGERISDEEALFLFESRDPLAVGELAAAVNRRRNGDRVFFNVNRHINHTNICVNRCSFCAFYRAADEPGAYLYDLEEIRNRAAEAHAQGATEIHIVGGLHPDLPFDFYLAMLRTVKEVSPDLHVKAFTAVEIEYLSRLAGLSTAETLTVLKEAGLGSLPGGGAEIFAPAVRNRLCPEKISGDKWLAIMEEVHRAGLKSNATMLYGHIESYADRVDHMRRLRELQDRTGGFQVFIPLAFQKDNNPLGHLKRPGPGGVDALLTLAVARIYLDNFANIKAYWVMLGVKIAQTSLAFGVNDLDGTVVEEKIGHDAGAASPQTMGRDEIVSLIRTAGRVPVERDTLYNELRVY
